Results reported in paper PMC6939650 (Molecules and Cells, 2019).

Target: the molecule itself
Experiment: SEC-MALS

B1: MexT regulatory domain (domain or fragment, Pseudomonas aeruginosa, UniProt Q9I0Z0 95-304, looked up)
chain: PATSTAVFRIGLSDDVEFGLLPPLLRRLRAEAPGIVLVVRRANYLLMPNLLASGEISVGVSYTDELPANAKRKTVRRSKPKILRADSAPGQLTLDDYCARPHALVSFAGDLSGFVDEELEKFGRKRKVVLAVPQFNGLGTLLAGTDIIATVPDYAAQALIAAGGLRAEDPPFETRAFELSMAWRGAQDNDPAERWLRSRISMFIGDPDSL
  stoichiometry N: 2
